# Experimental data as given in patent publication US20040091964A1, “Modified proteins, isolated novel peptides,and uses thereof” (priority 2003, published 2004).
# Entries after “also recorded” stand apart in the source; their conditions may differ.
# B1: modified MRP4 polypeptide: modified human MRP4 polypeptide lacking the T-K-F motif (terminal 3 amino acids deleted) (protein, listed as Homo sapiens)
# chain: MLPVYQEVKPNPLQDANLCSRVFFWWLNPLFKIGHKRRLEEDDMYSVLPEDRSQHLGEELQGFWDKEVLRAENDAQKPSLTRAIIKCYWKSYLVLGIFTLIEESAKVIQPIFLGKIINYFENYDPMDSVALNTAYAYATVLTFCTLILAILHHLYFYHVQCAGMRLRVAMCHMIYRKALRLSNMAMGKTTTGQIVNLLSNDVNKFDQVTVFLHFLWAGPLQAIAVTALLWMEIGISCLAGMAVLIILLPLQSCFGKLFSSLRSKTATFTDARIRTMNEVITGIRIIKMYAWEKSFSNLITNLRKKEISKILRSSCLRGMNLASFFSASKIIVFVTFTTYVLLGSVITASRVFVAVTLYGAVRLTVTLFFPSAIERVSEAIVSIRRIQTFLLLDEISQRNRQLPSDGKKMVHVQDFTAFWDKASETPTLQGLSFTVRPGELLAVVGPVGAGKSSLLSAVLGELAPSHGLVSVHGRIAYVSQQPWVFSGTLRSNILFGKKYEKERYEKVIKACALKKDLQLLEDGDLTVIGDRGTTLSGGQKARVNLARAVYQDADIYLLDDPLSAVDAEVSRHLFELCICQILHEKITILVTHQLQYLKAASQILILKDGKMVQKGTYTEFLKSGIDFGSLLKKDNEESEQPPVPGTPTLRNRTFSESSVWSQQSSRPSLKDGALESQDTENVPVTLSEENRSEGKVGFQAYKNYFRAGAHWIVFIFLILLNTAAQVAYVLQDWWLSYWANKQSMLNVTVNGGGNVTEKLDLNWYLGIYSGLTVATVLFGIARSLLVFYVLVNSSQTLHNKMFESILKAPVLFFDRNPIGRILNRFSKDIGHLDDLLPLTFLDFIQTLLQVVGVVSVAVAVIPWIAIPLVPLGIIFIFLRRYFLETSRDVKRLESTTRSPVFSHLSSSLQGLWTIRAYKAEERCQELFDAHQDLHSEAWFLFLTTSRWFAVRLDAICAMFVIIVAFGSLILAKTLDAGQVGLALSYALTLMGMFQWCVRQSAEVENMMISVERVIEYTDLEKEAPWEYQKRPPPAWPHEGVIIFDNVNFMYSPGGPLVLKHLTALIKSQEKVGIVGRTGAGKSSLISALFRLSEPEGKIWIDKILTTEIGLHDLRKKMSIIPQEPVLFTGTMRKNLDPFNEHTDEELWNALQEVQLKETIEDLPGKMDTELAESGSNFSVGQRQLVCLARAILRKNQILIIDEATANVDPRTDELIQKKIREKFAHCTVLTIAHRLNTIIDSDKIMVLDSGRLKEYDEPYVLLQNKESLFYKMVQQLGKAEAAALTETAKQVYFKRNYPHIGHTDHMVTNTSNGQPSTLTIFE
# Assays:
# MDCK cells = assay: Localization of GFP fusion proteins in polarized MDCK cells by confocal microscopy; assay type: cell-based, canine; details: GFP fusion protein, confluent MDCK cells on Transwell membranes
# Description: The cMOAT-gfp and MRP1-gfp constructs supra (1 μg of DNA per transfection) were separately transfected into MDCK cells and L1210 cells using a UpofectAMINE transfection kit (Life Technologies, Inc.). Transfections of MDCK cells were carried out using Transwell plates (Costar, 24 mm×3 μm polycarbonate membrane) to enable cell polarization. Cells were imaged using a NikonTE300 inverted microscope linked to a Radiance 2000 Laser Scanning System for confocal microscopy and Lasersharp 2000 imaging software (Bio-Rad).
# To conveniently detect the localization of the proteins under investigation, GFP fusion proteins were produced and their localization visualized using confocal microscopy to visualize the fluorescent product, as described supra. […]
# L1210 cells [1] = assay: 2,4-Dinitrophenyl glutathione (DNP-GS) transport from L1210 cells; assay type: cell-based, mouse; details: L1210 cells expressing the protein, compared with control L1210 cells; spectrophotometry
# Source text: DNP-GS was generated in L1210 cells by exposure to 1-chloro-2,4-dinitrobenzene and its efflux determined as described previously (Olive et al., (1994) Biochim. Biophys. Acta 1224, 264-268).
# L1210 cells [2] = assay: Survival of L1210 cells in the presence of Busulfan; assay type: cell-based, mouse; details: versus non-transfected L1210 cells or L1210 cells expressing native cMOAT
# Description: Accordingly, the ability of modified cMOAT polypeptides to confer resistance to Busulfan was determined in L1210 cells. In particular, the ΔcMOAT polypeptide having the amino acid sequence set forth in SEQ ID NO: 4, was expressed in L1210 cells as described in Example 1. The transfected cells were exposed to a range of concentrations of Busulfan. The survival of wild type L1210 cells, and transfected L1210 cells expressing either native cMOAT or ΔcMOAT, was determined in the presence of Busulfan. Survival was also assessed relative to the growth of cells that had not been exposed to Busulfan. Cell growth and survival were assayed using standard procedures (Denizot et al (1986), J. Immunol. Methods 89, 271-277).
# L1210 cells [3] = assay: [3H]paclitaxel transport from L1210 cells expressing modified MDR3; assay type: cell-based, mouse; details: L1210 cells stably expressing the polypeptide without GFP tag, compared to control L1210 cells
# Description: The transport of [^3H]paclitaxel is determined from L1210 cells expressing the modified MDR3 polypeptide and compared to the efflux of [^3H]paclitaxel from control L1210 cells not ectopically expressing any MDR3 polypeptide.
# L1210 cells [4] = assay: 6-mercaptopurine transport (6-thio-IMP efflux) from L1210 cells expressing modified MRP4; assay type: cell-based, mouse; details: L1210 cells stably expressing the polypeptide without GFP tag, compared to control L1210 cells or L1210 cells expressing native MRP4
# Description: Radiolabeled 6-mercaptopurine is added to L1210 cells expressing the modified MRP4 polypeptide and the efflux of 6-thio-IMP compared to the efflux of 6-thio-IMP from L1210 cells expressing native MRP4, or alternatively, the efflux of 6-thio-IMP from control L1210 cells not ectopically expressing any MRP4 polypeptide.
molecule,measurement,setting,value
"F1545A: modified cMOAT polypeptide with Phe1545 mutated to alanine, tested as cMOAT-gfp fusion",membrane localization in polarized MDCK cells,MDCK cells,did not exhibit modified localization; also recorded: did not alter normal targeting; also recorded: same localization as the native protein
"ΔcMOAT: modified human cMOAT polypeptide wherein the C-terminal T-K-F motif was deleted, without a GFP tag",efflux of DNP-GS into the supernatant,L1210 cells [1],"significantly higher efflux; also recorded: transport 2,4-dinitrophenyl glutathione; also recorded: increased transport"
same,resistance to Busulfan conferred on L1210 cells,L1210 cells [2],significantly enhanced resistance to Busulfan
"T1543A: modified cMOAT polypeptide with Thr1543 mutated to alanine, tested as cMOAT-gfp fusion",membrane localization in polarized MDCK cells,MDCK cells,both apical and basolateral targeting with an increase in protein accumulation in intracellular vesicles; also recorded: non-polarized distribution
modified MDR3 polypeptide: modified human MDR3 polypeptide lacking the T-K-F motif (terminal 4 amino acids deleted),efflux of [3H]paclitaxel,L1210 cells [3],significantly higher efflux
cMOAT: native human canalicular multispecific organic anion transporter (MRP2) [reference compound],efflux of DNP-GS into the supernatant,L1210 cells [1],little evidence for the transport of DNP-GS; also recorded: minimal; also recorded: same rate of efflux
"S1542A: modified cMOAT polypeptide with Ser1542 mutated to alanine, tested as cMOAT-gfp fusion",membrane localization in polarized MDCK cells,MDCK cells,fluorescence appears to be in sub-membrane vesicles
B1,efflux of 6-thio-IMP,L1210 cells [4],significantly higher efflux
